Data taken from PMC4219626 (Nature structural & molecular biology, 2014).
Blank lines part the entries; values can stand above or below the binder they belong to.

B2: Rrn6 (recombinant, His6-tagged) (natural protein, S. cerevisiae, UniProt P32786 1-894, looked up)
chain: MSEGQIPSSDVLGSQLGVGVQGASLYCPQENYTTKKQEKPQWLRPVDDTLAEDALDLHIVVKSLLCDTAIRYISDDKVLQESDADDDLITSDIDEDTDNQGDTSIVVNPVIPVVPKDVHFFKKVDVGNDSMFGVNCDTPVSFQDYIPSDLLRNLDDTLQESTNSSRPMQDAFFWDPTVANRLDSQYIQTASDLRNYRDGTEIIAYASGKTGSVLNIAVLTRQNTLHLNRHNNVTSIELHSPIKSIKIPGASESIGRRSNLVGIITENSFQIFRIESVHSRSCDVMVSSSEPLYFVEIDDLQVVDFAFNPWDLQQFAIIDIKGNWSIGRIPKNFNNNNKRKLQLIDNLHGTIFDPEELSSWKRIEWFSHFQKILVFDRSKMIEIDFMNNWQTEVVQAKAWSNIRDYKRIDDKNGILLTSREIIIVGASESNDPVRRISWKHDLDPDDTTLRITVQKVKKPDHILLVAFVYSMRHKRIYMHVFSHRKANLFQSLGCSTVLEIPGGTPTGIETILTLDHIDDESRREEDADENFELVVDFLVKLRNSSEVYYYALSNTQNSEPNKQETPIIVDHPEWASLFNNADEREKESIGALVSQIKLKERERISRVQNLIEHENSHDEDKYLQDLGYRLSIATNELLESWQKTKDESILSGSLSHSKLKNLLENSDSFASIPEFSSLLDQFFQYYQDQDVTFIGFEKLLHLFLHEDVPGLDIFYNKLLQCWVLVSPQAELLTKEIVKDIIWSLARLEKPSLFEPIQNEISRSLSGPYQDIISSWDMDDINEEDESNEFNFDSQFSAPFNGRPPFNLNSQSQIPTIKSSQSSGLARRKRILKTQSQKATPLSQSTQNLSVLPDSMTPAFTLMQPPSSQISFVNDSQPRNSQKAKKKKKRIRGFG
B3: Rrn11 (recombinant) (natural protein, S. cerevisiae, UniProt Q04712 1-507, looked up)
chain: MFEVPITLTNRKFAQRRKLKYQYINYISRRFDRISKKSTTTDSLPTPENSAAENNDEEEGQNSEAGTYRRSVLQQKKRRRERHWRSVVGEIYSTTESETDSQEEETEEGGEHDTGIDKEDSDEERKFWKKYEKPEKSFEIWRTVSSQNKQPINKQKMTYHNFKKIEKIPLRKMEIPLLHCTKENKLYFQSISRGLEPLKTSTSEVRNYRTRHIVTLTDLLHLNVSRHNWSLAYKIFATLIRIPGVQIKSLWGIGVEILDNLSNSSSGLDFLQWMCQIYSSKSRFVQNINYRSIVPPFQTGSRTHTAKFAITYLWSSLINCQKSMEPSSNIIDKPFDTENDLLQELIDKISEWVLTPPFMEDAEVWFIYASCHLLKADTLSRQFVNDNKNNDLIGLDRDIKINQVIKHIHYVRTFLKICLDKGGFAVPSRLIENQLKSFESRLYGEAQDIQERDVANVYDSIDNSSVENSFGDVYETNAEFLDTQLMDLSPEDNGLDEMHYSDEDSSE
B4: Rrn7 (recombinant, His6-tagged) (natural protein, S. cerevisiae, UniProt P40992 1-514, looked up)
chain: MSTFIRGPICGTDNCPSRLWRIIDGRRTCQYGHVMEGDVEFNDDEDDLNGLGAGVITRRLNLTTNATGSFQSSQLTNSQLLQQQQRQSHKKFKKLIGHEAKLLFLKSFQFILKRQIRWLITEMRFPKEFEHVAKIIWLKILKTINDQPQEELKLQLHMTSTISILYLASTHLSLPVYTCDYIKWICTAKMPYFQASEILPKSWRIQLPNYYVSILEGSISPFNGQLYNKIALTCGMIHFKEFFNSEISCQGLLLKLVMQCALPPEFYFYTKQVIEFEETDIRNLTLWERTDERHTGRVSNHAELRVLSYFMLTINWMLSFDRDRQYPLKWILSLTESLTQRTTTSESIGRNIVKVVYPDKPTSSDYFQWSEEETLEFLKWMEKQFLPTQTKSLHNENGSMEMTIDQKIARRKLYKIFPLDREANHDGEFNDSTHQLTFIEDLQERYAKQTPFFESNKIRDSLNYQEANPPARKEAIGRLLTHIASQLLVDFAISKEQLKDCISRIKNACLHRMN

Columns and labels:
[1] = biological target: B4; assay: cross-linking
Rrn11 (recombinant) = biological target: B3; assay: cross-linking
[2] = biological target: B2; assay: cross-linking
[3] = biological target: B4; assay: cross-linking; remark: listed apart in the source
[4] = biological target: B2; assay: cross-linking; remark: listed apart in the source
[5] = biological target: B2; assay: co-purification

binding result [1]: binds | binding result (Rrn11 (recombinant)): binds | binding result [2]: binds
B1: TATA binding protein (TBP) (natural protein, S. cerevisiae, UniProt P13393 1-240, looked up)
chain: MADEERLKEFKEANKIVFDPNTRQVWENQNRDGTKPATTFQSEEDIKRAAPESEKDTSATSGIVPTLQNIVATVTLGCRLDLKTVALHARNAEYNPKRFAAVIMRIREPKTTALIFASGKMVVTGAKSEDDSKLASRKYARIIQKIGFAAKFTDFKIQNIVGSCDVKFPIRLEGLAFSHGTFSSYEPELFPGLIYRMVKPKIVLLIFVSGKIVLTGAKQREEIYQAFEAIYPVLSEFRKM

Binder: B2
stoichiometry N [3]: 1

Binder: B3
stoichiometry N [3]: 1 | stoichiometry N [4]: 1

Binder: B4
binding result [5]: binds
